This data set concerns the target alpha-thrombin (Homo sapiens) (UniProt P00734+P00734). Nature of the data set: flow. Particulars: bead-based fluorescence; measured here; sequence not given.

The Kd is a measure of binding affinity in units of concentration.

On to Tasset thrombin aptamer, for which the Kd is 10.4 nM.
Bock thrombin aptamer returned a Kd of 2.1 nM.

The values are drawn from US20160130575.
